Experimental data published in patent publication US20220064331A1 (Genentech, published 2022).

Experiments:
Experiment in all cases: FACS on transfected HEK293T cells
[1] = molecular target: T1, cynomolgus monkey KLB (+N-ter FLAG) (cynomolgus monkey, UniProt Q86Z14 53-991 (human entry))
T1 construct: expressed from KLB cDNA on HEK293T cells and read by FACS; also called Cyno KLB
T1 chain: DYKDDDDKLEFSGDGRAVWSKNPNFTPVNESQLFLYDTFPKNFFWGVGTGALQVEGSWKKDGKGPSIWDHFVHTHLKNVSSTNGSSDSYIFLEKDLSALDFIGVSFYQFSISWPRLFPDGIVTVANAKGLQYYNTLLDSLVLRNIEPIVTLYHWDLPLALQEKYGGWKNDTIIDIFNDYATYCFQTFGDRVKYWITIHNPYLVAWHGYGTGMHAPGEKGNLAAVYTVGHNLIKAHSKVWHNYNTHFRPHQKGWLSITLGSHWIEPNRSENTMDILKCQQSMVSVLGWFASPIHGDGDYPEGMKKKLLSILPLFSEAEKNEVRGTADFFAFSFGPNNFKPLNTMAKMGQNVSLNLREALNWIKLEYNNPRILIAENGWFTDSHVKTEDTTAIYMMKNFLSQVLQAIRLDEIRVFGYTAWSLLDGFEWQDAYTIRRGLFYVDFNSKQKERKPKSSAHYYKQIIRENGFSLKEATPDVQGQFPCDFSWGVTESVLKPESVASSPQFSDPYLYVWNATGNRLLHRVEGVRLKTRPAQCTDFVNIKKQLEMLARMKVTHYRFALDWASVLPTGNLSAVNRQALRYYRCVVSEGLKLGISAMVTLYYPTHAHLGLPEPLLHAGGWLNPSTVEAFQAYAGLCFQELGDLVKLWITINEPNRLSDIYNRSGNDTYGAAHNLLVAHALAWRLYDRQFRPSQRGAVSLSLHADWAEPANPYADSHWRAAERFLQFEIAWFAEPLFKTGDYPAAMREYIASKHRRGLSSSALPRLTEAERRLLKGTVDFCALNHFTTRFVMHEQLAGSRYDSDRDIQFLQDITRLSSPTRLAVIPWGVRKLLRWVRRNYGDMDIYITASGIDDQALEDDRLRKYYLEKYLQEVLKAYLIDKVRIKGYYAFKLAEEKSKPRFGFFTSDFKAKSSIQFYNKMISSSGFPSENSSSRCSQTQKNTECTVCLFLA
Method: (§1) Species cross reactivity of the disclosed anti-KLB antibodies were analyzed by FACS analysis using KLB cDNA from mouse, rat, rabbit, cynomolgus monkey and rhesus monkey cloned into pRK mammalian expression vectors transiently transfected into HEK293T cells. The KLB extracellular domain polypeptide sequences that were expressed are as follows: […]

rabbit KLB (+N-ter FLAG) = molecular target: T2, rabbit KLB (+N-ter FLAG) (rabbit)
T2 construct: expressed from KLB cDNA on HEK293T cells and read by FACS
T2 chain: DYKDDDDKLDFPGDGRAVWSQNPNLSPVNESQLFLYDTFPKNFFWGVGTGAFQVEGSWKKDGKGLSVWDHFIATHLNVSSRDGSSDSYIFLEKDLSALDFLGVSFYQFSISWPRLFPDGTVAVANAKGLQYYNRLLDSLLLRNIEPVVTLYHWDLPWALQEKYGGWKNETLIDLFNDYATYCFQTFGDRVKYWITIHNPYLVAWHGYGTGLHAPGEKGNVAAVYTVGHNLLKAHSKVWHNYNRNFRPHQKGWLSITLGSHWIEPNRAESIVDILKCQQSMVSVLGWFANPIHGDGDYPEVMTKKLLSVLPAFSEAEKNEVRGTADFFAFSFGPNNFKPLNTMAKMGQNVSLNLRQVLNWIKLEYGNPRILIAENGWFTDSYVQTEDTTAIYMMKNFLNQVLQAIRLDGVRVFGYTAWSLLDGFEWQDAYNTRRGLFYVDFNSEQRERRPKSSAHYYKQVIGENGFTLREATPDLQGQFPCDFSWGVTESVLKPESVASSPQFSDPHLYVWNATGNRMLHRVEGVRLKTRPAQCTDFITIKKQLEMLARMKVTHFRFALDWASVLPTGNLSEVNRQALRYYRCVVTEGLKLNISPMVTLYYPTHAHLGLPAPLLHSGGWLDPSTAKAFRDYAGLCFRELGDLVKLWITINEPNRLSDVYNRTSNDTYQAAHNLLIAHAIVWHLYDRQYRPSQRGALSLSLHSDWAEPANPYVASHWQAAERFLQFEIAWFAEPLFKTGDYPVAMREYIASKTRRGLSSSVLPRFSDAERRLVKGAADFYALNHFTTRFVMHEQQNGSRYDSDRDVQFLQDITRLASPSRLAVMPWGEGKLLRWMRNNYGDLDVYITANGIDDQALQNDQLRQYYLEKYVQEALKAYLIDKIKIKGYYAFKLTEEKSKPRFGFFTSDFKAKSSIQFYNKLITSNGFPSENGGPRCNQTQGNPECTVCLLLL
Method: as §1

rat KLB (+N-ter FLAG) = molecular target: T3, rat KLB (+N-ter FLAG) (rat, UniProt Q99N32 53-989 (mouse entry))
T3 construct: expressed from KLB cDNA on HEK293T cells and read by FACS
T3 chain: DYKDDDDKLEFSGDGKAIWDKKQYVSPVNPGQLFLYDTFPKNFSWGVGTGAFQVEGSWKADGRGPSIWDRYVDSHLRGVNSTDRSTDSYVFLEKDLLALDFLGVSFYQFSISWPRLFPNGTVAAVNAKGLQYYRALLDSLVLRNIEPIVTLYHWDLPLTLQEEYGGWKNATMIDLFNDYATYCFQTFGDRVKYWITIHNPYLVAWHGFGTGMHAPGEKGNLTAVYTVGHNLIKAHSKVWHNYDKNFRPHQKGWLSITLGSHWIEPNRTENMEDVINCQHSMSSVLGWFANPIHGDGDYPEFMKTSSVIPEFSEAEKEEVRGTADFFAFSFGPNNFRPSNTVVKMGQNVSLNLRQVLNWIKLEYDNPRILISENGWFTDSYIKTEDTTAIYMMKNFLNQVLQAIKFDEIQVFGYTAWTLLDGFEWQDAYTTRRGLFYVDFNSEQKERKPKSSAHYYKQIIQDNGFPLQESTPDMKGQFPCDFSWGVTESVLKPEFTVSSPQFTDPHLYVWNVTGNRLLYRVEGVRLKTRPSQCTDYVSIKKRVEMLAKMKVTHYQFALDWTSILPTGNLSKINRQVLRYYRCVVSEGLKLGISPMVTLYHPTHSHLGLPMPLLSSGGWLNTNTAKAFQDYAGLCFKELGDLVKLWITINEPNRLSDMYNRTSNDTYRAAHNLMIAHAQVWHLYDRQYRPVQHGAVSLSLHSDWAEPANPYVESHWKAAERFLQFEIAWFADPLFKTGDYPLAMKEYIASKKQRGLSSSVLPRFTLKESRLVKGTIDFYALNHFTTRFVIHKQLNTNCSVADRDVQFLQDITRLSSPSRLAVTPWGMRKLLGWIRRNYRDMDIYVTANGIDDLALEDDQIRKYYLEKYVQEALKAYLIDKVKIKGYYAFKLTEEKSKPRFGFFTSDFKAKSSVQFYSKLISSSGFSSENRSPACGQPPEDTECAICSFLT
Method: as §1

B1: 5F8 (antibody, V domains shown)
VH: EVQLQQSGTELVRPGASVKLSCTSSDFNIKDTYIHWVKQRPEQGLDWLGRIDPANGNTKYDPKFQGKAAMTSDTSSNTAYLRLSSLTSEDTAVYYCASSGNYGAMDYWGQGTSVTVSS
VL: ESVLTQSPALMSASLGEKVTMTCRASSSVNHMYWYQQKSDASPKLWIYYTSTLAPGVPARFSGSGSGNSYSLTISSMEGEDAATYYCQQFTISPSMYTFGGGTKLEIK
notes: murine hybridoma-derived anti-KLB antibody
binding result [1]: binds
binding result (rabbit KLB (+N-ter FLAG)): binds
binding result (rat KLB (+N-ter FLAG)): no binding

B2: 14C10 (antibody, V domains shown)
VH: QVTLKESGPGILQPSQTLSLTCSFSGFSLSTSAMGIGWIRQPSGKGLEWLAHIWWDDDKRYNPALKSRLTISKDTSRNQVFLKIASVDTADTATYFCARIDGIYDGSFYAMDYWGQGTSVTVSS
VL: DIVLTQSPASLAVSLGQRATISCRASESVDSYGNSFMHWYQQKPGQPPKLLIYRASNLESGIPARFSGSGSRTDFTLTINPVEADDVANYYCQQSNEDYTFGGGTKLEIK
notes: murine hybridoma-derived anti-KLB antibody; also called KLBmAb3
binding result [1]: binds
binding result (rabbit KLB (+N-ter FLAG)): binds
binding result (rat KLB (+N-ter FLAG)): no binding

B3: 8E1 (antibody, V domains shown)
VH: EVQLQQSGAELVKPGASVKLSCTAADFNIKDTYMHWVKQRPEQGLEWIGRIDPSNGNAKYDPKFQGKASITADSSSNTAYLHLSSLTSEDTAVYYCASRALGNGYALGYWGQGTSVTVSS
VL: DIQMTQSSSYLSVSLGGSVTITCKASDHINNWLAWYQQKPGNAPRLLIYGTTNLETGVPSRFSGSGSGRDYILSITSLQSEDVASYYCQQYWNTPFTFGSGTKLEIK
notes: as for B1
binding result [1]: binds
binding result (rabbit KLB (+N-ter FLAG)): binds
binding result (rat KLB (+N-ter FLAG)): no binding

B4: 25F7 (antibody, V domains shown)
VH: EVQLQQSGAELLKPGASVRLSCTASGFNIQDTFTHWVRQRPEQGLEWIGRIDPSNGNTKYDPKFQGKAKILADTSSNTAYLQLIGLTSEDTAVYYCASRALGNGYAMDYWGQGTSVTVSS
VL: DIQMTQSSSYLSVSLGGRVTITCKASDHINNWLAWYQQKPGNAPRLLISGASNLETGIPSRFSGSGSGKDYTLTITSLQTEDVATYYCQQYWNTPFTFGSGTKLEIK
notes: as for B1
binding result [1]: binds
binding result (rat KLB (+N-ter FLAG)): no binding

B5: 8C5 (antibody, V domains shown)
VH: QVQLKQSGPGLVQPSQSLSVACTVSDFSLTTYGVHWVRQSPGKGLEWLGVIWSGGSTDYNAAFISRLTISKDNSKSQVFFKMNSLQTTDTAIYYCARDYGSTYVDAIDYWGQGTSVTVSS
VL: DIVLTQSPTSLAVSLGQRATISCRASESVESYGNRYMTWYQQKPGQPPKLLIYRAANLQSGIPARFSGSGSRTDFTLTIDPVEADDVATYYCQQSNEDPWTFGGGTKVEIK
notes: murine hybridoma-derived anti-KLB antibody; also called KLBmAb1
binding result [1]: binds
binding result (rabbit KLB (+N-ter FLAG)): no binding
binding result (rat KLB (+N-ter FLAG)): binds

B6: 24A1 (antibody, V domains shown)
VH: QVQLKQSGAELVRPGTSVTLSCKASGYTFTDYEMHWMKQTPVYGLEWIGAIWPENADSVYNQKFKGKVTLTADKSSSTAYMDLRSLTSEDSAVYYCTREGGNYWGQGTTLTVSS
VL: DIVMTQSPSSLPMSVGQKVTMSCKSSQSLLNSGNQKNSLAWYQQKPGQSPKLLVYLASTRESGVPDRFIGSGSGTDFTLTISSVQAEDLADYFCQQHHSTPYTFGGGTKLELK
notes: as for B1
binding result [1]: binds
binding result (rabbit KLB (+N-ter FLAG)): binds
binding result (rat KLB (+N-ter FLAG)): binds

B7: 12B8 (antibody, V domains shown)
VH: QIQLVQSGPELKKPGETAKISCKASGYAFSNYGMNWVKQAPGKDLKWMGWIDTDTGEATYTDDFKGRFVFSLETSASTAYLQINNLKNEDMATYFCAREEYGLFGFPYWGHGTLVTVSA
VL: DIQMTQSSSSFSVSLGDRVTITCKASEDIYNRLAWYQQKPGSAPRLLISAATSLETGVPSRFSGSGSGKDYTLSITSLQTEDVATYYCQQYWSNPLTFGAGTKLEIK
notes: as for B1
binding result [1]: binds
binding result (rabbit KLB (+N-ter FLAG)): binds
binding result (rat KLB (+N-ter FLAG)): no binding

B8: 8H7 (antibody, V domains shown)
VH: QVQLQQPGAEIVKPGASVRLSCKASGYSFTSYWIHWVKQRPGQGLEWIGEIDPSVSNSNYNQKFKGKATLTADKSSSTAYMQLSGLTSEDSAVYFCVRLGVMVYGSSPFWFAYWGQGTLVTVSA
VL: DIVMTQSQKFMSTSVGDRVSITCKASQFVSDAVAWYQQKPGQSPKLLICSASYRYTGVPDRFTGSGSGTDFTFTISSVRTEDLAVYYCQQHYIVPYTFGGGTTLEIE
notes: as for B1
binding result [1]: binds
binding result (rabbit KLB (+N-ter FLAG)): binds
binding result (rat KLB (+N-ter FLAG)): no binding

B9: 12A11 (antibody, V domains shown)
VH: EVKFLESGGGLVQPGGSLRLSCAVSGIDFSRYWMSWVRQAPGKGLEWIGEISPDSSTINYTPSLKDKFVISRDNAKNTLYLQMSKVRSADTALYYCARPSPALDYWGQGTLVTVSA
VL: DIVMTQSPATLSVTPGDRVSLSCRASQSISDYVYWYQQKSHESPRLLIIYASQSISGIPSRFSGSGSGSDFTLSINSVEPEDVGVYYCQNGHNFPYTFGGGTKLEIK
notes: murine hybridoma-derived anti-KLB antibody; also called KLBmAb2
binding result [1]: binds
binding result (rabbit KLB (+N-ter FLAG)): binds
binding result (rat KLB (+N-ter FLAG)): no binding

B10: 14C6 (antibody, V domains shown)
VH: QIQLQQSGAELMKPGASVRMSCKASGYTFSSYWIEWVKQRSGHGLEWIGEIFPGGGSTIYNENFRDKATFTADTSSNTAYMQLSSLTSEDSAVYFCARRGYYDAAWFDYWGQGTLVTVSA
VL: QIVLTQSPAIMSASPGERVTLTCSASSSLSSSYLYWYQQKPGSSPKLWIYGASNLASGVPGRFSGSGSGTSYSLTISSMEAEDAASYFCHQWSSYPLTFGSGTKLELK
notes: as for B1
binding result [1]: binds
binding result (rabbit KLB (+N-ter FLAG)): binds
binding result (rat KLB (+N-ter FLAG)): binds
